Measurements as given in article doi:10.1101/2024.03.20.586028.

Biological target: Methanocaldococcus jannaschii SufB* (N-terminal His6 tagged) (Methanocaldococcus jannaschii)
Assay: pull-down

- stoichiometry N: 1
Substance: Methanocaldococcus jannaschii SufC (untagged) (natural protein)
